The text below walks through data of patent US20090081197A1 (PALATIN TECHNOLOGIES, published 2009).

What is called Ki is the equilibrium dissociation constant of an inhibitor or competing ligand from its target. Low readings indicate a stronger hold on the target, high ones a looser hold on the target.

Like-named read-outs stand apart in the source and are kept apart here. Starred links: 1 amine or outer side, 2 acyl side, 3 side chain; linkers in the order of their positions; H or OH if unused. Non-standard residues stand in square brackets, D forms with d. No end group written: not given here. *: point of attachment. Thr(Bzl) = O-benzyl-threonine, C[C@@H](OCc1ccccc1)[C@H](N[*:1])C(=O)[*:2]; Ser(Bzl) = O-benzyl-serine, O=C([C@H](COCc1ccccc1)N[*:1])[*:2]; dPhe(4-Cl) = N[C@H](Cc1ccc(Cl)cc1)C(=O)O; Heptanoyl = CCCCCCC(=O)*; Ahp = NCCCCCCC(=O)O

In test [1] the target is T1, human melanocortin 4 receptor (human, UniProt P32245 1-332). In words: cell-based or functional assay.
T1 sequence (P32245 whole entry): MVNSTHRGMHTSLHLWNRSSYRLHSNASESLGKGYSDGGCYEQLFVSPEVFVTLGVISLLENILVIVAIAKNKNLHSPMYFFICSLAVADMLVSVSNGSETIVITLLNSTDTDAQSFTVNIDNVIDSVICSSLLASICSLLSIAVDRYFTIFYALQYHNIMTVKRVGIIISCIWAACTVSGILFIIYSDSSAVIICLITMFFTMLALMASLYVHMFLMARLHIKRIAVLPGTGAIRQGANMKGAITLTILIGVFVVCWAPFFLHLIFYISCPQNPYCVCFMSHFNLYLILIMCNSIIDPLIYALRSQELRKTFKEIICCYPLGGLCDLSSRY
Test [2] concerns the target T1, human melanocortin 4 receptor. The test can be described thus: cell-based or functional assay. The source holds these as a separate data set.
Test [3] shares this target. In words: radioligand competition, [I125]-NDP-α-MSH, hMC4-R membranes. (Loss of bound radioactivity is the signal in a displacement assay; it reports binding, not function.)
Test [4] addresses T2, MC1-R of B-16 mouse melanoma cells (mouse, UniProt Q01727 1-315).
T2 construct: whole, on cells; also called B16-F10 (MC1-R)
In words: radioligand competition, [I125]-NDP-α-MSH, B-16 membranes.

Test [5] concerns the target T3, human melanocortin 5 receptor (human, UniProt P33032 1-325).
T3 construct: whole, on cells; also called hMC5-R; MC5-R
The test can be described thus: radioligand competition, [I125]-NDP-α-MSH, hMC5-R membranes.

In test [6] the target is T4, human melanocortin 3 receptor (human, UniProt P41968 1-323).
T4 construct: whole, on cells; also called hMC3-R; MC3-R
T4 sequence (P41968 whole entry): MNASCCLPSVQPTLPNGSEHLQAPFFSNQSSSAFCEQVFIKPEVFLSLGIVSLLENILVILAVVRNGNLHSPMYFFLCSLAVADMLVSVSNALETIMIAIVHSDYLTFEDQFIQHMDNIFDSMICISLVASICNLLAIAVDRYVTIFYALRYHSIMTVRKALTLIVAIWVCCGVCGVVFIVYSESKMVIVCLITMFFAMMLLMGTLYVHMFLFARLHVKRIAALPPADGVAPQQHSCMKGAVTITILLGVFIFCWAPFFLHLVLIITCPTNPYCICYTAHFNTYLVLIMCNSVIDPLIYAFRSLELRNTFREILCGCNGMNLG
The test can be described thus: radioligand competition, [I125]-NDP-α-MSH, hMC3-R membranes.

Test [7] concerns the target T2, MC1-R of B-16 mouse melanoma cells. In words: radioligand competition, [I125]-NDP-α-MSH, B-16 membranes. This is another data set of the same source.
Test [8] addresses T4, human melanocortin 3 receptor. The test can be described thus: radioligand competition, [I125]-NDP-α-MSH, hMC3-R membranes. This is another data set of the same source.
Test [9] has as its target T1, human melanocortin 4 receptor. The test can be described thus: cell-based or functional assay. This is another data set of the same source.
The target of test [10] is T3, human melanocortin 5 receptor. The test can be described thus: radioligand competition, [I125]-NDP-α-MSH, hMC5-R membranes. The source holds these as a separate data set.
In test [11] the target is T1, human melanocortin 4 receptor. In words: radioligand competition, [I125]-NDP-α-MSH, hMC4-R membranes. This is another data set of the same source.
Test [12] deals with T4, human melanocortin 3 receptor. In words: radioligand competition, [I125]-NDP-α-MSH, hMC3-R membranes. This is another data set of the same source.
The target of test [13] is T1, human melanocortin 4 receptor. In words: radioligand competition, [I125]-NDP-α-MSH, hMC4-R membranes. This is another data set of the same source.
Test [14] deals with T3, human melanocortin 5 receptor. In words: radioligand competition, [I125]-NDP-α-MSH, hMC5-R membranes. The source holds these as a separate data set.
Test [15] has as its target T1, human melanocortin 4 receptor. The test can be described thus: cell-based or functional assay. This is another data set of the same source.
In test [16] the target is T2, MC1-R of B-16 mouse melanoma cells. In words: radioligand competition, [I125]-NDP-α-MSH, B-16 membranes. The source holds these as a separate data set.

T2 sequence (Q01727 whole entry): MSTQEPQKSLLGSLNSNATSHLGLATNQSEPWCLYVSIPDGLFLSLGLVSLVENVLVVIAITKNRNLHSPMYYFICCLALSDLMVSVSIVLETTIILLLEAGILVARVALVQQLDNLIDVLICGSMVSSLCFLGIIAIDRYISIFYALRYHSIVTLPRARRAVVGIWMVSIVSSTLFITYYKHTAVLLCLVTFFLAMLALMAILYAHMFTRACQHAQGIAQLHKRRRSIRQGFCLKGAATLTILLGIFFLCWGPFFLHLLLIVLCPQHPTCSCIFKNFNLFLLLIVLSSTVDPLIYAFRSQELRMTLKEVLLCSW
T3 sequence (P33032 whole entry): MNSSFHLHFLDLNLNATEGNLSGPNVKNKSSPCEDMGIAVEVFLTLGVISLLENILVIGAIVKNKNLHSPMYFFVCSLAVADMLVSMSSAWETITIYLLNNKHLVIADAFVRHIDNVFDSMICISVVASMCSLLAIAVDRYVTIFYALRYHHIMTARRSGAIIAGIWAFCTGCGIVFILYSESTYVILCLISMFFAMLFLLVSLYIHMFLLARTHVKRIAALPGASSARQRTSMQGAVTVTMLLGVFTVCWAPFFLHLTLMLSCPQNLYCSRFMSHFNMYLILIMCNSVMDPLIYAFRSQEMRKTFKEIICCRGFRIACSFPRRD

B1: Heptanoyl-Thr(Bzl)-D-Phe(4-Cl)-Arg-Trp-NH2 (peptide)
peptide: Heptanoyl-[Thr(Bzl)][dPhe(4-Cl)]RW-NH2
SMILES: CCCCCCC(=O)N[C@H](C(=O)N[C@H](Cc1ccc(Cl)cc1)C(=O)N[C@@H](CCCNC(=N)N)C(=O)N[C@@H](Cc1c[nH]c2ccccc12)C(N)=O)[C@@H](C)OCc1ccccc1
notes: also called Compound No. 23
In the case of B1, in test [1], the “EC50 (nM), normal system (cAMP)” value is more than 1000 nM. The “intrinsic activity, normal system (cAMP)” value in test [1] was found to be 0.4. Further, the “EC50 (nM) (cAMP), High Receptor Density System” value (shortened to “EC50 (nM) (cAMP)”) in test [2] was 184 nM. Moreover, the Ki stood at 21 nM in test [3], 747 nM in test [4], 292 nM in test [5] and 374 nM in test [6].

B2: NH2-(CH2)6-C(=O)-Ser(Bzl)-D-Phe(4-Cl)-Arg-Trp-Asp-Phe-NH2 (peptide)
peptide: [Ahp][Ser(Bzl)][dPhe(4-Cl)]RWDF-NH2
modifications: N-terminus assumed
SMILES: N=C(N)NCCC[C@H](NC(=O)[C@@H](Cc1ccc(Cl)cc1)NC(=O)[C@H](COCc1ccccc1)NC(=O)CCCCCCN)C(=O)N[C@@H](Cc1c[nH]c2ccccc12)C(=O)N[C@@H](CC(=O)O)C(=O)N[C@@H](Cc1ccccc1)C(N)=O
notes: also called Compound No. 14
Regarding B2, the Ki worked out at 242 nM in [7], 76 nM in [8], 405 nM in [10] and 5 nM in [11]. Besides, the “EC50, normal system (cAMP)” value in test [1] came out at 238 nM. The “intrinsic activity, normal system (cAMP)” value in [1] came out at 0.5. For the same molecule, in [9], the “EC50 (nM) (cAMP)” value came out at 141 nM.

B3: NH2-(CH2)6-C(=O)-Ser(Bzl)-D-Phe(4-Cl)-Arg-Trp-Ala-NH2 (peptide)
peptide: [Ahp][Ser(Bzl)][dPhe(4-Cl)]RWA-NH2
modifications: N-terminus assumed
SMILES: C[C@H](NC(=O)[C@H](Cc1c[nH]c2ccccc12)NC(=O)[C@H](CCCNC(=N)N)NC(=O)[C@@H](Cc1ccc(Cl)cc1)NC(=O)[C@H](COCc1ccccc1)NC(=O)CCCCCCN)C(N)=O
notes: also called Compound No. 15
Regarding B3, the “EC50, normal system (cAMP)” value in [1] was more than 1000 nM. Moreover, the “intrinsic activity, normal system (cAMP)” value in [1] is less than 0.1. For the same molecule, the Ki in [12] was 35 nM; in test [13], 2 nM; in [14], 112 nM; in [16], 142 nM. Further, the “EC50 (nM) (cAMP)” value in [15] came to 55 nM.
